Measured values as given in PMC7318626.

Biological target: Neonatal Fc receptor (FcRn), soluble form (UniProt P55899)
Assay: mass photometry (single-molecule counting of species by mass)
Details: not stated (in the SI)

Chain of UniProt P55899 (P55899 whole entry): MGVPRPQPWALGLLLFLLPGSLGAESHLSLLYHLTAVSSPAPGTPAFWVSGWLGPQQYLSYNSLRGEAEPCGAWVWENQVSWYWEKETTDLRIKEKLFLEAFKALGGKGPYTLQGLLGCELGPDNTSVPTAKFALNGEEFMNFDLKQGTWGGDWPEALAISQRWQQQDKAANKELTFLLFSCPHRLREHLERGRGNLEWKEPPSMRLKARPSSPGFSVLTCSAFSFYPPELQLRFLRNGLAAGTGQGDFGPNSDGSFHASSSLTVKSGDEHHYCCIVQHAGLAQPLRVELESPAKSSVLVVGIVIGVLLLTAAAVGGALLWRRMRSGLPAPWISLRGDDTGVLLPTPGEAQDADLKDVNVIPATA

Kd (pH 5, pH 5, 5.5, 6 and 7) [nM] | Kd (pH 5, pH 5, 5.5 and 6) [nM] | Kd (pH 5.5, pH 5, 5.5, 6 and 7) [nM] | Kd (pH 5.5, pH 5, 5.5 and 6) [nM] | Kd (pH 6, pH 5, 5.5 and 6) [nM] | Kd (pH 6, pH 5, 5.5, 6 and 7) [nM] | Kd (pH 7, pH 5, 5.5, 6 and 7) [nM] | Substance
44 ± 9 | 31 ± 11 | 171 ± 19 | >200 | >200 | – | – | Neonatal Fc receptor (FcRn), soluble form
59 ± 8 | – | 225 ± 20 | – | – | >200 | >200 | Trastuzumab (Herceptin), IgG1 monoclonal antibody, called 'IgG' in the article
6.6 ± 0.6 | – | 3.9 ± 1.5 | – | – | – | – | Trastuzumab (Herceptin), IgG1 monoclonal antibody, called 'IgG' in the article + Neonatal Fc receptor (FcRn), soluble form
